The values that follow are results of earlier work, collected in article PMC7862380.

One may read the Kd as the constant that tells how readily two partners part at equilibrium.

The target of data set [1] is Lys63-linked di-ubiquitin (Homo sapiens) (UniProt P0CG48).
The target of data set [2] is Met1-linked di-ubiquitin (Homo sapiens) (UniProt P0CG48).

Chain of OTULIN (Q96BN8 whole entry): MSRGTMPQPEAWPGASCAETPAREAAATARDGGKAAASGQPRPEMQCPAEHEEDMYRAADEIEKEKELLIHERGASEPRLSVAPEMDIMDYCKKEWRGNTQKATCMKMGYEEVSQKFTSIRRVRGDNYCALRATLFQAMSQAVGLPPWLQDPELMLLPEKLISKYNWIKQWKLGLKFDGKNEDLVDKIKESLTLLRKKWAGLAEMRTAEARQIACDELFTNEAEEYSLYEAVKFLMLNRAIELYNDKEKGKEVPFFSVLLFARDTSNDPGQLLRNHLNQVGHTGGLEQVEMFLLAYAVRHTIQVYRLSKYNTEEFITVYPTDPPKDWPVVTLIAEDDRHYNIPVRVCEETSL

Turning to OTULIN (from UniProt Q96BN8), the results for the dissociation constant Kd in data set [1] and in data set [2] were 12 µM and 0.12 µM, respectively.
